Biological target: the molecule itself
Assay: SEC-SAXS

B1: gated spinach aquaporin SoPIP2;1 (natural protein)
chain: MSKEVSEEAQAHQHGKDYVDPPPAPFFDLGELKLWSFWRAAIAEFIATLLFLYITVATVIGHSKETVVCGSVGLLGIAWAFGGMIFVLVYCTAGISGGHINPAVTFGLFLARKVSLLRALVYMIAQCLGAICGVGLVKAFMKGPYNQFGGGANSVALGYNKGTALGAEIIGTFVLVYTVFSATDPKRSARDSHVPILAPLPIGFAVFMVHLATIPITGTGINPARSFGAAVIFNSNKVWDDQWIFWVGPFIGAAVAAAYHQYVLRAAAIKALGSFRSNPTN
  binding result: binds

From publication doi:10.1101/2022.10.28.512841 (bioRxiv, 2022)
